# Source: publication PMC7374751, “TIMP-3 facilitates binding of target metalloproteinases to the endocytic receptor LRP-1 and promotes scavenging of MMP-1” (Scientific Reports, 2020)
# B1: FLAG-tagged TIMP-3 (natural protein, UniProt P35625 24-211, looked up)
# chain: CTCSPSHPQDAFCNSDIVIRAKVVGKKLVKEGPFGTLVYTIKQMKMYRGFTKMPHVQYIHTEASESLCGLKLEVNKYQYLLTGRVYDGKMYTGLCNFVERWDQLTLSQRKGLNYRYHLGCNCKIKSCYYLPCFVTSKNECLWTDMLSNFGYPGYQSKHYACIRQKGGYCSWYRGWAPPDKSIINATDP
# notes: also called T3; [35S]TIMP-3
# Legend:
# Conditions in all cases: both partners purified
# [1] = target: T1, FLAG-tagged ADAMTS-4 lacking the C-terminal spacer domain (ADAMTS4-2) (UniProt O75173 213-685); experiment: enzyme inhibition kinetics (fluorogenic peptide substrates); apparent Ki; enzyme pre-incubated with TIMP-3 (0.5-100 nM) 1 h at 37 °C, equilibrium rate of substrate hydrolysis; TNC buffer (50 mM Tris-HCl pH 7.5, 150 mM NaCl, 10 mM CaCl2, 0.05% Brij-35, 0.02% NaN3), 37 °C; tight-binding equation
# T1 construct: ADAMTS-4 lacking the C-terminal spacer domain
# T1 sequence (looked up): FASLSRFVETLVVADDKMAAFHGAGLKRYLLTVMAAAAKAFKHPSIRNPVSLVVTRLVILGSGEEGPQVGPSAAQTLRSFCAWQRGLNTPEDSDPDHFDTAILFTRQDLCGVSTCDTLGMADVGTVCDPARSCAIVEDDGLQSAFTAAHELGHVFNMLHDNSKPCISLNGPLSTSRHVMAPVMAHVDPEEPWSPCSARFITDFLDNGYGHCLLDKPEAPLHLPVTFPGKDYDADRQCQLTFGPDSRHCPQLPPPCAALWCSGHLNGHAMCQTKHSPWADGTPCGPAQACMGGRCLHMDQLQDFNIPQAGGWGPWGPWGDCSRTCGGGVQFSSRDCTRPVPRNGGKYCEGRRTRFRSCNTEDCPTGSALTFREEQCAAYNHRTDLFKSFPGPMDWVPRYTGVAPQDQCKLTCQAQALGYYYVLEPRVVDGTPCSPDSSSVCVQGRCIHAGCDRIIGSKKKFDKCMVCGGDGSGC
# [2] = target: T2, low-density lipoprotein receptor-related protein 1 (LRP-1) (UniProt Q07954 20-4544); experiment: SPR; BIAcore T200; LRP-1 immobilised on a CM5 chip by amine coupling (3000 RU); 25 °C; 150 mM NaCl, 10 mM CaCl2, 50 mM Tris-HCl, 0.01% Tween-20, pH 7.5; 30 μl/min; ligands or pre-formed complexes injected; one-site binding model; triplicate
# T2 construct: low-density lipoprotein receptor-related protein 1 (LRP-1), bought from Biomac; source: bought: Biomac (Leipzig, Germany)
# ADAM17 ectodomain = target: T3, ADAM17 ectodomain (UniProt P78536 215-671); experiment: enzyme inhibition kinetics (fluorogenic peptide substrates); apparent Ki; enzyme pre-incubated with TIMP-3 (0.5-100 nM) 1 h at 37 °C, equilibrium rate of substrate hydrolysis; TNC buffer (50 mM Tris-HCl pH 7.5, 150 mM NaCl, 10 mM CaCl2, 0.05% Brij-35, 0.02% NaN3), 37 °C; tight-binding equation
# T3 construct: ADAM17 ectodomain from R&D Systems; source: bought: R&D Systems
# [3] = target: T4, MMP-13 (active enzyme of the inhibition assays) (UniProt P45452 20-471); experiment: as above
# T4 construct: MMP-13 whose activity was measured (0.1 nM)
# [4] = target: T5, catalytic domain of human MMP-1 (MMP-1ΔC) (human, UniProt P03956 100-269); experiment: as above
# T5 construct: catalytic domain of human MMP-1 (lacks the hemopexin domain); pro-domain removed with APMA
# T5 sequence (looked up): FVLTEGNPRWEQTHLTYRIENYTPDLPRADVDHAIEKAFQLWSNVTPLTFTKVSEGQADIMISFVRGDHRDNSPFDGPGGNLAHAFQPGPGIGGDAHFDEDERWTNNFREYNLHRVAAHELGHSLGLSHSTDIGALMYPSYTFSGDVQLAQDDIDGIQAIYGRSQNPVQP
# [5] = target: T1, FLAG-tagged ADAMTS-4 lacking the …; experiment: as above; remark: listed apart in the source
# [6] = target: T6, MMP-3 catalytic domain (MMP-3ΔC) (UniProt P08254 100-272); experiment: as above
# T6 construct: catalytic domain of MMP-3; pro-domain removed with APMA
# [7] = target: T5, catalytic domain of human MMP-1 …; experiment: enzyme activity of pre-formed complexes against synthetic substrates; 10 nM [35S]TIMP-3 incubated with an equimolar concentration of metalloproteinase for 1 h at 37 °C; complex formation and stability over 24 h checked by activity
# MMP-9 = target: T7, MMP-9 (UniProt P14780 107-707); experiment: as above
# T7 construct: MMP-9, active enzyme after removal of the pro-domain with APMA
# [8] = target: T1, FLAG-tagged ADAMTS-4 lacking the …; experiment: as above
# T2 sequence (Q07954 20-4544): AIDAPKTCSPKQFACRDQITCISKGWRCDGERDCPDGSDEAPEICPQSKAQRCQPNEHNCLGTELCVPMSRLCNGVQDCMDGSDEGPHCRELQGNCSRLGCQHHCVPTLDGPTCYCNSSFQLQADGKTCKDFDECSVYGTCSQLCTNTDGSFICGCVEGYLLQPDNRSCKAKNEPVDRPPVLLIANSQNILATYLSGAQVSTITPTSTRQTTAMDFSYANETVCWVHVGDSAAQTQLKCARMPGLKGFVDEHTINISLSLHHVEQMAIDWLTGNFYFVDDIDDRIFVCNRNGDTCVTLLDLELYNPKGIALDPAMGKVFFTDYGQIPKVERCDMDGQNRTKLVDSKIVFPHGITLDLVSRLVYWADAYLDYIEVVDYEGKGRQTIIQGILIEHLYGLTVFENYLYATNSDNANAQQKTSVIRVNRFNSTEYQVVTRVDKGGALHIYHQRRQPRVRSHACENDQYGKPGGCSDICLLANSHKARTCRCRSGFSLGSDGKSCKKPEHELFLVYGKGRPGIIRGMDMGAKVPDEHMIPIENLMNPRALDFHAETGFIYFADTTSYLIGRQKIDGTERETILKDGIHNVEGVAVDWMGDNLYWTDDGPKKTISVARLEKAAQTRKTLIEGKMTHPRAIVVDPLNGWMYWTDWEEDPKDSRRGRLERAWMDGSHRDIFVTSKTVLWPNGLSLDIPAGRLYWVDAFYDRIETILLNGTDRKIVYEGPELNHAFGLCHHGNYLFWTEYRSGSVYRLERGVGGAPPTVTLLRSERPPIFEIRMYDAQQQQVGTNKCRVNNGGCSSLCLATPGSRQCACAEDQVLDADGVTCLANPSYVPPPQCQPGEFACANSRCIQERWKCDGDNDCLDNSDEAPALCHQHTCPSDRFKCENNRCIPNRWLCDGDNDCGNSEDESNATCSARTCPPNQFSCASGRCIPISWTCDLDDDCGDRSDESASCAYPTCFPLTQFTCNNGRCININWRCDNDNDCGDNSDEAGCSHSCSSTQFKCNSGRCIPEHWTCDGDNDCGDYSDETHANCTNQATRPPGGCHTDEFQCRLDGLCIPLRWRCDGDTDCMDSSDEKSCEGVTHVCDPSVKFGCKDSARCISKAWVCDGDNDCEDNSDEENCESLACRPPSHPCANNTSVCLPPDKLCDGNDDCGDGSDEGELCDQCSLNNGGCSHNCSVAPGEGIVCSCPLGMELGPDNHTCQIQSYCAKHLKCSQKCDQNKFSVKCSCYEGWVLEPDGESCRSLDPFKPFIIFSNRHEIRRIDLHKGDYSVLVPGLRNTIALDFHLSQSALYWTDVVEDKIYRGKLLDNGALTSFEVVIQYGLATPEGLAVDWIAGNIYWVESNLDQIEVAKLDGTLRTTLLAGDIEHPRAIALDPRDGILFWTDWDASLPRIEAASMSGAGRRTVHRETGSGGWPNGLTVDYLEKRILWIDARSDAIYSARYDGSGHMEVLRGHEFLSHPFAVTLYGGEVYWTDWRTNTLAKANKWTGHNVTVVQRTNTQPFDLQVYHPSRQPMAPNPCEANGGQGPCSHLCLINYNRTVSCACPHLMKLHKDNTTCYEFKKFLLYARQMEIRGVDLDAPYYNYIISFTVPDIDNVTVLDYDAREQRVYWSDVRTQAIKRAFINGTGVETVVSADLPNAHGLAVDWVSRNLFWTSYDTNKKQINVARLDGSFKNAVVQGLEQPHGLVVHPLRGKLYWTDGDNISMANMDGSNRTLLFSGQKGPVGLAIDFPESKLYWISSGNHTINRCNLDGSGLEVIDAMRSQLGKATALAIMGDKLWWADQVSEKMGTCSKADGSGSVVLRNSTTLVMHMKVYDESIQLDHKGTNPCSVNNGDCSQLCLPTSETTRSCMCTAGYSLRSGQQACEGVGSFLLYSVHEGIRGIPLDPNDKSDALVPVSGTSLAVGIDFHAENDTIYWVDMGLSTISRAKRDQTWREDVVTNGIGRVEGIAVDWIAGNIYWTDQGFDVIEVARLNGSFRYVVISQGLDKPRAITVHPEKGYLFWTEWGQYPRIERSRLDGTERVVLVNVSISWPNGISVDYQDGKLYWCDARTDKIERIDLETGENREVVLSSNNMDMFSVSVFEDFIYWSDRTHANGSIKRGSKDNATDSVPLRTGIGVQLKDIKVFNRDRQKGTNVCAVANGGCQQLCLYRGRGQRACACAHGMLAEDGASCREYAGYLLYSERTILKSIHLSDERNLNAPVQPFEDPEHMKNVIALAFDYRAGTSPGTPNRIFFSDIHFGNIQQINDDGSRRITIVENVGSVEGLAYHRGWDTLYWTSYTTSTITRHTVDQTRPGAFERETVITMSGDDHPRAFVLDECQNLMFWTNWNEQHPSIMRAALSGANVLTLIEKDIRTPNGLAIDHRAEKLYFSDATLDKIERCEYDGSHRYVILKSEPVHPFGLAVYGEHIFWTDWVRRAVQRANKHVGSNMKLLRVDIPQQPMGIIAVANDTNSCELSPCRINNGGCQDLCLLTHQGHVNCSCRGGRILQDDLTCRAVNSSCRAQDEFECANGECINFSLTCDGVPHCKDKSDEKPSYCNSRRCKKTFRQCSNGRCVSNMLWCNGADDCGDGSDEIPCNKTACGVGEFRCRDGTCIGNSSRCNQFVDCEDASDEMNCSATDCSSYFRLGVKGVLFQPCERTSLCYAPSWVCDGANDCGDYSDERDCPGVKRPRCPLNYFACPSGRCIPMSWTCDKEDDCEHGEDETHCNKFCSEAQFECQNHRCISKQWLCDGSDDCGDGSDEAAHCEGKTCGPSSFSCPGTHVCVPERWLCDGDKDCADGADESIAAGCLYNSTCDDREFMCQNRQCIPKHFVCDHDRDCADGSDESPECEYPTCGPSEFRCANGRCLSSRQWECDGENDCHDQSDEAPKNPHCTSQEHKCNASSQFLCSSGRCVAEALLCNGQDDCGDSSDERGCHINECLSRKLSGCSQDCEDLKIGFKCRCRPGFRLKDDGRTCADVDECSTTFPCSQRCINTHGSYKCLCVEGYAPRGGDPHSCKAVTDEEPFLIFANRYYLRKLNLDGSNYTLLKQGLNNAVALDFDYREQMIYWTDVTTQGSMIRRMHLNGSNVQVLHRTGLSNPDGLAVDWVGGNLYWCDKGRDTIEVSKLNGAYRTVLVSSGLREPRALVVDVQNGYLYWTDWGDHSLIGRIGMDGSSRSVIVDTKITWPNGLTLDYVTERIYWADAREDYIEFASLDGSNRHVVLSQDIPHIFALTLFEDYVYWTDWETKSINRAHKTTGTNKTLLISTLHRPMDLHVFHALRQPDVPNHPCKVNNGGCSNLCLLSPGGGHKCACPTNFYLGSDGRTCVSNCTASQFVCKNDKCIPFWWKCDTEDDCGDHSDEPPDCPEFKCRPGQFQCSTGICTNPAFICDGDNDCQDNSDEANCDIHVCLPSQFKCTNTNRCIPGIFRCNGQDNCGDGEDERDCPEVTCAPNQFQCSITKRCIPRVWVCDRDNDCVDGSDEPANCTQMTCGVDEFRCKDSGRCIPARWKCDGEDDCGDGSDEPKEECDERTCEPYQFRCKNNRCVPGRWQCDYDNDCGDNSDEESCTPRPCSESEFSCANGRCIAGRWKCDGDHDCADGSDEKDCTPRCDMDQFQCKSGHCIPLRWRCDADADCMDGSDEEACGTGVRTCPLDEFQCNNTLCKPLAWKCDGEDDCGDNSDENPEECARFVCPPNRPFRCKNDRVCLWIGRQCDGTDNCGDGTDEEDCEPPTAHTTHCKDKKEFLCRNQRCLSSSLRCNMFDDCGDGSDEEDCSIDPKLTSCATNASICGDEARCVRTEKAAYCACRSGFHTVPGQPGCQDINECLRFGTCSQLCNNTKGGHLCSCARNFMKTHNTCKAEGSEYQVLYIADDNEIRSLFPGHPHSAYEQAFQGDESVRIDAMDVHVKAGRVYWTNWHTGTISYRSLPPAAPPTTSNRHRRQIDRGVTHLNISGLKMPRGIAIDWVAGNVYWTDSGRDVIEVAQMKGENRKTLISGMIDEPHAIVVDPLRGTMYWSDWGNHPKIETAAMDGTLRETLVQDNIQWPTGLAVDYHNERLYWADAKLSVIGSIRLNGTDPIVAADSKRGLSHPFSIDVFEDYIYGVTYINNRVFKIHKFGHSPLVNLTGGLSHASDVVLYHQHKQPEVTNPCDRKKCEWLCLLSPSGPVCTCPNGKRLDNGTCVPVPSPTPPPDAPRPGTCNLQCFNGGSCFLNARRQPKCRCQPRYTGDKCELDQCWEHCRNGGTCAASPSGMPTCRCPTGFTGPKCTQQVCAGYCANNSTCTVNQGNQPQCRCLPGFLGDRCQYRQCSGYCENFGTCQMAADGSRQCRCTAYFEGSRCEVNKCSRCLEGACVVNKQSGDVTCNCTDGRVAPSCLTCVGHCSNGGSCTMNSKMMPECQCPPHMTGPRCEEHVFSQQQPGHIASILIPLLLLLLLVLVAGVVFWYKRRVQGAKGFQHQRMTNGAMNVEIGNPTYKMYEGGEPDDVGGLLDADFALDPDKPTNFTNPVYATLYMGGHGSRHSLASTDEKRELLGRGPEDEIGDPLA
# T3 sequence (P78536 215-671): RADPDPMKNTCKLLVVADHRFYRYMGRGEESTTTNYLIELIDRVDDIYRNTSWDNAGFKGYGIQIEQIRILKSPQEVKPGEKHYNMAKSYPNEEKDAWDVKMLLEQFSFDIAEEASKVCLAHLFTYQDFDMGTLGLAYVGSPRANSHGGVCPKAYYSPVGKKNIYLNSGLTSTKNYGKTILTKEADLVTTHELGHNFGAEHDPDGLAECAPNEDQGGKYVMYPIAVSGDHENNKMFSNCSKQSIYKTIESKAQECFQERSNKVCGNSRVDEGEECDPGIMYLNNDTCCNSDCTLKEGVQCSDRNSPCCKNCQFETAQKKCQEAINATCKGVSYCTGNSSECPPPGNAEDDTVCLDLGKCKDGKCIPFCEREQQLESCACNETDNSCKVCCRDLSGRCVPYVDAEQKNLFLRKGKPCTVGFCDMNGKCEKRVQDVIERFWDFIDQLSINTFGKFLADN
# T6 sequence (P08254 100-272, stated change not applied): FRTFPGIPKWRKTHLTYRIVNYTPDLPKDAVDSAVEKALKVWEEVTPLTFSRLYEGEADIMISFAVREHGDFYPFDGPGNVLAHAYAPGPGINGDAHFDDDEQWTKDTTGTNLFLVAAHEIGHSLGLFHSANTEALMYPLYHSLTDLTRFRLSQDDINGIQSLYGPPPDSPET
binder,measurement,setting,value
B1,Ki,[1],1.24 nM
same,Kd,[2],1.68 nM
same,koff,[2],0.00389 s⁻¹
same,kon,[2],2.31e+06 M⁻¹ s⁻¹
same,Ki,ADAM17 ectodomain,3.61 nM
same,Ki,[3],< 0.5 nM
same,Ki,[4],1.86 nM
same,Ki,[5],0.124 nM
same,Ki,[6],0.55 nM
same,stoichiometry N,[7],1
same,stoichiometry N,MMP-9,1
same,stoichiometry N,[8],1
